Reference: article PMC8766848, “The Structural Basis of Babesia orientalis Lactate Dehydrogenase” (Frontiers in Cellular and Infection Microbiology, 2022)

Legend:
[1] = system: T1, CC(=O)c1ccc[n+]([C@@H]2O[C@H](COP(=O)([O-])OP(=O)(O)OC[C@H]3O[C@@H](n4cnc5c(N)ncnc54)[C@H](O)[C@@H]3O)[C@@H](O)[C@H]2O)c1; assay: enzyme kinetics (Km), lactate to pyruvate, comparison enzyme; type: biochemical, Babesia microti; settings: varied: cofactor
T1 construct: recombinant rBmLDH

[2] = molecular target: recombinant Babesia orientalis lactate dehydrogenase (Babesia orientalis); assay: native gel or EMSA; 8% blue native-PAGE of purified rBoLDH, without sodium dodecyl sulfate; ~160 kDa band
[3] = molecular target: recombinant Babesia orientalis lactate dehydrogenase (Babesia orientalis); assay: crystal structure; apo rBoLDH, hanging drop vapour diffusion at 20°C, 1 M lithium chloride, 0.1 M sodium acetate, 25-30% PEG 6000; space group P1, 2.67 Å

| Substance | Km [1] | stoichiometry N [2] | stoichiometry N [3] |
| --- | --- | --- | --- |
| Babesia microti lactate dehydrogenase (BmLDH) (Babesia microti strain RI) | 880 ± 120 µM |  |  |
| recombinant Babesia orientalis lactate dehydrogenase (enzyme) |  | 4 | 4 |
